Test results taken from patent publication US20200353050A1 (Eli Lilly, published 2020).

How the values were obtained:
[1] = target: T1, human PD-1 (human, UniProt Q15116 25-167, limits assumed); experiment: method not stated in that sentence (BLI in the next one), 25° C; 25° C; human PD-1
T1 construct: also called programmed cell death protein 1; CD279

[2] = target: T2, PD-1; experiment: bio-layer interferometry (BLI)
T2 construct: the paragraph before it speaks of human and cynomolgus PD-1; also called programmed cell death protein 1; CD279
T2 sequence (Q15116 25-170): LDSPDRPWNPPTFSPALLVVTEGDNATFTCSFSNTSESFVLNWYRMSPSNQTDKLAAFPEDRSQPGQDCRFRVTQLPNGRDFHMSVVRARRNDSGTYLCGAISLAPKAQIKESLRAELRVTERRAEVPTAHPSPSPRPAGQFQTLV

[3] = target: T3, cynomologous monkey PD-1 (cynomologous monkey, UniProt B0LAJ3 25-170); experiment: method not stated in that sentence (BLI in the next one), 25° C
T3 construct: also called cynomolgus PD-1
T3 sequence (B0LAJ3 entry or part of it limits assumed): as the sequence (Q15116 25-170) above, with D2E, P10A, V19L, T35A, Q75R, T144A counted along it

T1 sequence (Q15116 25-167 limits assumed): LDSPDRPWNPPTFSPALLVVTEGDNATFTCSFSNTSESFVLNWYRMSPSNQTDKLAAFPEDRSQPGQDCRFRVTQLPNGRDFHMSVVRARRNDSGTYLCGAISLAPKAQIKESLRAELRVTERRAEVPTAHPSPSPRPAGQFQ

B1: AM0001 (antibody, human IgG4 S228P, lambda, V domains shown)
VH: EVQLLESGGGLVQPGGSLRLSCPASGFTFSSYAMSWVRQAPGKGLGWVSDISGGGGTTYYADSVKGRFTISRDNSKNTLYLQMNSLRGEDTAVYYCAKSGTVVTDFDYWGQGTLVTVSS
VL: SYVLTQPPSVSVAPGQTARVTCGGNSIGSYSVHWYQQKPGQAPVLVVYDDSDRPSGIPERFSGSNSGNTAALTISRVEAGDEADYYCQVWDTSSYWVFGGGTKLTVLG
notes: Monoclonal antibody with a lambda 2 light chain and a hinge-stabilized IgG4 (S228P) heavy chain; also called PD1-antagonist antibody AM0001; VH-09/VL-09
Kd [1]: ≤ 0.01 nM | Kd [2]: < 0.001 nM | Kd [3]: ≤ 0.01 nM
